In publication PMC10663520, “Qa-SNARE syntaxin 18 mediates lipid droplet fusion with SNAP23 and SEC22B” (Cell Discovery, 2023):

T1: GST-Flag-STX18 (full-length) (UniProt Q9P2W9 1-335)
T1 construct: syntaxin 18 (STX18), full length, in pGEX-4T-1 with GST-TEV-3xFLAG at the N-terminus; C-terminus printed as 331-DWYDS-335; The methods describe only the TEV-cleaved preparation; also called GST-STX18; GST-Flag-tagged STX18; source: E. coli BL21 (C43), purified (Glutathione Sepharose 4B); not shown: GST, N-terminal, kept; 3xFLAG, N-terminal, kept
T1 sequence (looked up): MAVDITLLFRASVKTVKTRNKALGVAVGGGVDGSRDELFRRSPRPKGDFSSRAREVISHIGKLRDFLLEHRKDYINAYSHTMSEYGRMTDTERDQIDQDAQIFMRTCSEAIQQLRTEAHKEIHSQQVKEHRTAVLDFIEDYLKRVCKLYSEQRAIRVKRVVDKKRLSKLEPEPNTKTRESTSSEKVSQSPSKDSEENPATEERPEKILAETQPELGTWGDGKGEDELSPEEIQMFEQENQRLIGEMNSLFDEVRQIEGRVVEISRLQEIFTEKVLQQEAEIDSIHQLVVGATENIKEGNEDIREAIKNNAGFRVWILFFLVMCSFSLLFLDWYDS

B1: SEC22B (full-length, purified) (natural protein, UniProt O75396 1-215, looked up)
chain: MVLLTMIARVADGLPLAASMQEDEQSGRDLQQYQSQAKQLFRKLNEQSPTRCTLEAGAMTFHYIIEQGVCYLVLCEAAFPKKLAFAYLEDLHSEFDEQHGKKVPTVSRPYSFIEFDTFIQKTKKLYIDSRARRNLGSINTELQDVQRIMVANIEEVLQRGEALSALDSKANNLSSLSKKYRQDAKYLNMRSTYAKLAAVAVFFIMLIVYVRFWWL
notes: SEC22B, full length, in pGEX with N-terminal GST and a TEV site after it; C-terminus printed as 212-FWWL-215; The uncleaved form is called GST-Flag-SEC22B in the pull-down methods; if a FLAG follows the TEV site it would remain here; also called purified SEC22B; source: E. coli BL21 (C43), purified (Glutathione Sepharose 4B, TEV on beads); not shown: GST, N-terminal, cleaved
B2: SNAP23 (full-length, purified) (natural protein, UniProt O00161 1-211, looked up)
chain: MDNLSSEEIQQRAHQITDESLESTRRILGLAIESQDAGIKTITMLDEQKEQLNRIEEGLDQINKDMRETEKTLTELNKCCGLCVCPCNRTKNFESGKAYKTTWGDGGENSPCNVVSKQPGPVTNGQLQQPTTGAASGGYIKRITNDAREDEMEENLTQVGSILGNLKDMALNIGNEIDAQNPQIKRITDKADTNRDRIDIANARAKKLIDS
notes: SNAP23, full length, in pGEX with N-terminal GST and a TEV site after it; The uncleaved form is called GST-Flag-SNAP23 in the pull-down methods; if a FLAG follows the TEV site it would remain here; also called purified SNAP23; source: E. coli BL21 (DE3), purified (Glutathione Sepharose 4B, TEV on beads); not shown: GST, N-terminal, cleaved
B3: GST-Flag-SNAP23 (natural protein, UniProt O00161 1-211, looked up)
chain: B2 chain
notes: SNAP23, full length, in pGEX with N-terminal GST and a TEV site after it; The cloning paragraph names no FLAG tag for this construct; the pull-down methods and legends call it GST-Flag-SNAP23; also called GST-SNAP23; GST-Flag-tagged SNAP23; source: E. coli BL21 (DE3), purified (Glutathione Sepharose 4B); not shown: GST, N-terminal, kept
B4: STX18-SNARE (243-305), individually purified (domain or fragment, UniProt Q9P2W9 243-305, looked up)
chain: IGEMNSLFDEVRQIEGRVVEISRLQEIFTEKVLQQEAEIDSIHQLVVGATENIKEGNEDIREA
notes: syntaxin 18 (STX18), SNARE domain, residues 243-305, in pGEX-4T-1 with GST-TEV-FLAG at the N-terminus; The TEV site lies between GST and FLAG, so the FLAG tag should remain after cleavage (surmised); source: E. coli BL21 (DE3), purified (Glutathione Sepharose 4B, TEV on beads, Superdex 75); not shown: GST, N-terminal, cleaved
B5: SEC22B-SNARE (134-194), individually purified (domain or fragment, UniProt O75396 134-194, looked up)
chain: NLGSINTELQDVQRIMVANIEEVLQRGEALSALDSKANNLSSLSKKYRQDAKYLNMRSTYA
notes: SEC22B, SNARE domain, residues 134-194, in pET28 with 6xHis at the N-terminus

Experiments:
Conditions in all cases: both partners purified
[1] = molecular target: T1, GST-Flag-STX18 (full-length); assay: pull-down; GST-Flag-tagged bait on GST agarose beads, 4 °C 1 h; 20 mM HEPES pH 7.4, 300 mM NaCl, 1 mM EDTA, 1% OG, 0.1% FOS-Choline-12; purified SEC22B (54.7 μM, 20 μL) or SNAP23 (280 μM, 5 μL) added; immunoblot and Coomassie
[2] = molecular target: B1; assay: as above
[3] = molecular target: B2; assay: SEC; individually purified SNAP23, STX18-SNARE and SEC22B-SNARE, alone or as an in vitro incubated mixture of the three, on Superdex75 10/300 GL; SDS-PAGE of fractions

| binding result [1] | binding result [3] | further results | Binder |
| --- | --- | --- | --- |
| binds |  |  | B1 |
| binds |  |  | B2 |
|  |  | binding result [2]: binds | B3 |
|  | binds |  | B4 |
|  | binds |  | B5 |
